Data: the DeepSol protein solubility set

assay: soluble on expression in E. coli; label from the status in PepcDB or PDB records

| Sequence | soluble on expression in E. coli |
| --- | --- |
| MAKEKKRGFFSWLGFGQKEQTPEKETEVQNEQPVVEEIVQAQEPVKASEQAVEEQPQAHTEAEAETFAADVVEVTEQVAESEKAQPEAEVVAQPEPVVEETPEPVAIEREELPLPEDVNAEAVSPEEWQAEAETVEIVEAAEEEAAKEEITDEELETALAAEAAEEAVMVVPPAEEEQPVEEIAQEQEKPTKEGFFARLKRSLLKTKENLGSGFISLFRGKKIDDDLFEELEEQLLIADVGVETTRKIITNLTEGASRKQLRDAEALYGLLKEEMGEILAKVDEPLNVEGKAPFVILMVGVNGVGKTTTIGKLARQFEQQGKSVMLAAGDTFRAAAVEQLQVWGQRNNIPVIAQHTGADSASVIFDAIQAAKARNIDVLIADTAGRLQNKSHLMEELKKIVRVMKKLDVEAPHEVMLTIDASTGQNAVSQAKLFHEAVGLTGITLTKLDGTAKGGVIFSVADQFGIPIRYIGVGERIEDLRPFKADDFIEALFARED | soluble |
| MAKEWFTVKECLGLPGFPGSEPAVRERLYKYSEGKEGVRRKRVKSKAEEFHISVFPLYVHRYLDDSGEEPTPEPISLQEAEPEDIWEMMFRLLTPEQRKQVTGRFKVRGMKAVFPFLFDDTPPR | not soluble |
| MAKGTIKTNTPPPAPVVGPPGKSAKYRVKHTITVMSGKGGVGKSTVAVNLAVSLAKKGLKVGLIDADINGPDDPKLLGVEDLKLYADDDGIIPAETKYGVKVVSMGFLLPSQDTPVIWRGSLMHKAIQQFLEDVSWKDTDYVVLDMPPGTGDVALSVAQLVPESNGVVIVVTPQDVALLDAKKAINFARQLKLPIFGIIENMSGFVCPHCGNVTYIFKEGGGEKSAKEYNVPFLGKIPLVPEIADNGDKGIPAVEINDTIKSIFNDIADKILKQILGENVKTEALEHHHHHH | not soluble |
| MAKGTKYVSKVPDEHGFIEWSTEENLIWQELFTRQIACIKDKACDEYHEGLAKLNLPTDRIPQLDEVSKVLKVSTGWECYPVPALIGFGEFFRLLSEKKFPVATFIRSREEMDYLQEPDIFHEIFGHCPLLTNSSFANYTEAYGKMGLNATKEQRVFLARLYWFTIEFGLLDTPKGLRIYGGGVLSSPGETDYAMNNTDVDRKPFDILDVLRTPYRIDIMQPIYYMLTKVSDLDEIRKFEVDDIMELVAQAEALGLHEAKFPVKKASLEHHHHHH | soluble |
| MAKLLYVQTSGIDTPERLYAPFVLAMTAKAMGDDAIIYFVIKGVTVVKKDNAEKIKMGNFPPLSELMKQARESGVEMMVCDRSSELLGIDKGEIVDGVKIVGAATLNQLVLEADGVLYF | not soluble |
| MAKLVTENISKRFKNQDVLKHINITLENNEVYGLLGINGAGKTTLMKIICGILQQDSGEIKLDNRPMTRNDLHKVGSLIETPATYNHLSAQDNLKIVCLNESVDFSEINSVLSLVNLNVDKKKKVKDFSLGMKQRLGIAMALIKKPEILVLDEPSNGLDPYGIQELRELLKLLTEQGTSIIISSHILSEIQVLADHIGIIHEGELKYQQRNNKDENLEEIFFKITKGDYK | not soluble |
| MAKLYFYYSAMNAGKTTTLLQSAHNYRERGMRTLILTPKLDHRAGSGVVASRIGLRADGRIFERDTELQQLVERDIHNDGALHCVLVDEAQFLSRAQVWQLSEVVDRLRIPVLCYGLRTDFRGELFEGSQFLLAWADELEEIKTICHSGSKATMTVRVDAHGHAVQDGPQVEIGGNERYVSVSRAEFKKIMRGEGRIDPLQIALPLPVALEHHHHHH | not soluble |
| MAKNAPRFVCQACGAVYPRWMGRCEACGEWNSIAEEAPAEALPKGQTGGRGGQRLSFVSLEGVGAPPPRLLTGIPELDRVAGGGLVAGSALLIGGDPGIGKSTLLLQAVAGLARGGARSVYISGEEAIDQVRLRALRLGLEKAPVDLAAATSVRDIVATLDSGEPPDVVVIDSIQTMYLDTLDSAPGTVAQVRAGSHELIRLAKRRGFVLFLVGHVTKEGQMAGPRVMEHMVDAVIYFEGERGHPFRILRAVKNRFGATDEIGVFEMSDAGLSEVPNPSALFLAERRGNVTGSCVFAGMEGTRPMLVEIQALVGPSAPGSARRAVVGWDGGRLAMVMAVLETRCGLALGGNDVYLNVAGGLRIGEPAADLAVAAALVSSFSGVPVPPDMVVFGEIGLSGEIRAVAHGDTRLKEAAKLGFDQALMPARPRDSGKRGGPGVKEGLRMREIGHLQDLVALLAPPENAGQGQRLEHHHHHH | soluble |
| MAKNIQAIRGMNDYLPGETAIWQRIEGTLKNVLGSYGYSEIRLPIVEQTPLFKRAIGEVTDVVEKEMYTFEDRNGDSLTLRPEGTAGCVRAGIEHGLLYNQEQRLWYIGPMFRHERPQKGRYRQFHQLGCEVFGLQGPDIDAELIMLTARWWRALGISEHVTLELNSIGSLEARANYRDALVAFLEQHKEKLDEDCKRRMYTNPLRVLDSKNPEVQALLNDAPALGDYLDEESREHFAGLCKLLESAGIAYTVNQRLVRGLDYYNRTVFEWVTNSLGSQGTVCAGGRYDGLVEQLGGRATPAVGFAMGLERLVLLVQAVNPEFKADPVVDIYLVASGADTQSAAMALAERLRDELPGVKLMTNHGGGNFKKQFARADKWGARVAVVLGESEVANGTAVVKDLRSGEQTAVAQDSVAAHLRTLLG | soluble |
| MAKNSRSKTQFENMKYEIAKEVGVNLKQGYNGDLTAREAGKIGGNIVKKVFQSYTGNSYPSERLGDTSR | not soluble |
| MAKPVVIGSRSFRTQSSALDHYKALLHRYQDGQRIADPADHTDLVALIERFDPVLDAVGEPAKGAGQIAHFERRLNTGIGWSTPGFWVVRQDGTETDFSYIDAVKGRPKGRSQDFYNACRQAVALDLVLAKKQAFAQYGDDQGRVECELTGKMVTIDDAHLDHAWPYFSHMVSGFRAARGWSRDIPDGIVSTPADGQTTATFLDSAVTEAFRAFHHDQAVLRVLSREANLQTASSARRPKVARPVRLA | not soluble |
| MAKTPVLLDRWGKPVKRAVLTEEISAATLGSVRSPITGYPADGLNPVRLASILREADAGDPVRYLELAETIEERDLHYLGVLGTRRRSVSQLDITVEAASDDPRDVEIADMIRDWLTRDELSDELFHMLDCIGKGYSFTEIIWDTSEGQWRPARLEWRDPRWFRFDRAALTTPLMLGPHGEELELTPFKFIFAEVKAKSGIALRSGLARAAAWAWMFKAFTQRDWAIFTQTYGQPLRLGRYGPGASEDDKATLFRAVANIAGDCAAIIPESMAIDFVETKSVGATADLYKQRADWLDQQISKAVLGQTATTDAVTGGLGSGKEHRQVQEDIERADAKALSGILNRDLIRPWVDLEYGPQARYPRLKIARPEPEDLKAMAEALAALVPIGLRVSQKKTRDRFGFDEPENDADVMGGTPAAAAVAAPPGADRPIKRFSGVFKGGEPPARPETALQAEAAPAALPASDDPAALLADRLAADAAPAMGAMIERVETMLAAAGSLAEFREMLLAGFPGIDAGDLATLMAQAMMAAHAGGRAAAEDAGA | not soluble |
| MAKYHDIASPAYILEEDLLRRNLSLIASVADRTGVEIILAFKAYALWRTFPIIREYVPHSTASSVWEARLAFEEMGAPAHTFSPAYTPEEFPEILRYSSHVTFNSLSQYYLLSPMVKNVGVSLGLRINPEYSAVETALYNPCAPGSRFGVSASELGDTLPEGIEGLHFHTLCESTGYELEKTLKIIEDRFASVLEQA | not soluble |
| MALEYVVTKRVFGFDKDKNEKYVAKSVRSGRVSFSKMCGKVSRLCGVHRKVVDLVVSGLVDMMAEDIDDGKSVQMGEFGIFSPTIRAKSADDEKEVSSKSIVQRKILFYPGKIFKTTLDDMSITRRAELDTDYTDGSSNNGSGSEKPNPGGDGGKDDEEAPDPTV | not soluble |
| MALFFRTRDRPLRPGDPYPLGSNWIEDDDGVNFSLFSENAEKVELLLYSLTNQKYPKEIIEVKNKTGDIWHVFVPGLRPGQLYAYRVYGPYKPELGLRFNPNKVLIDPYAKAINGSVIWNDAVFGYKIGDQNQDLTYDERDSGEYVPKSVVINPYFEWDDEDFIKGKKVPLKDTVIYEVHVKGFTKLRLDLPENIRGTYEGLASEQMISYLKDLGITTVELMPVFHFIDQRFLTDKGLTNYWGYDPINFFSPECRYSSTGCLGGQVLSFKKMVNELHNAGIEVIIDVVYNHTAEGNHLGPTLSFRGIDNTAYYMLQPDNKRYYLDFTGTGNTLNLSHPRVIQMVLDSLRYWVTEMHVDGFRFDLAAALARELYSVNMLNTFFIALQQDPILSQVKLIAEPWDVGQGGYQVGNFPYQWAEWNGKYRDSIRRFWRGEALPYSEIANRLLGSPDIYLGNNKTPFASINYVTSHDGFTLEDLVSYNQKHNEANGFNNQDGMNENYSWNCGAEGPTNDQNVVICREKQKRNFMITLLVSQGTPMILGGDELSRTQRGNNNAFCQDNEITWFDWNLDERKSKFLEFVKKMIQFYRAHPAFRRERYFQGKKLFGMPLKDVTFYTLEGREVDEKTWSSPTQLVIFVLEGSVMDEINMYGERIADDSFLIILNANPNNVKVKFPKGKWELVISSYLREIKPEERIIEGEKELEIEGRTALVYRRIEL | soluble |
| MALILTFLGKSGVARTKIAIAAAKLLASQGKRVLLAGLAEPVLPLLLEQTLTPDPQQIAPNLEVVQFQSSVLLERNWEEVKKLEAQYLRTPIIKEVYGQELVVLPGMDSALALNAIREYDASGKYDAIVYDGTGDAFTLRMLGLPESLSWYVRRFRQLFVNSDLGKTIAESPLIQPLISSFFNVNWTADNFAQPTNQVNNFLDKGKEALADPKRVAAFLVTTADPLEVVSVRYLWGSAQQIGLTIGGVIQVSSQTEGDLSAEFTPLSVTVVPDVTKGDWQPLIDALPNFVEQAEQAPKPITIDTHNRQVRLFLPGFDKKQVKLTQYGPEVTVEAGDQRRNIFLPPALSGRPITGAKFQNNYLIISFLEHHHHHH | soluble |
| MALKNNTLWTGPKPEANCIIEYGKQNPDSKLTLILVKNGGIVNGYVTLMGASDYVNTLFKNKNVSINVELYFDATGHILPDSSSLKTDLELKYKQTADFSARGFMPSTTAYPFVLPNAGTHNENYIFGQCYYKASDGALFPLEVTVMLNKRLPDSRTSYVMTFLWSLNAGLAPETTQATLITSPFTFSYIREDD | soluble |
| MALKTAVHEKIMNDVVLAVKKNAEWKVLIVDQLSMRMVSACCKMHEIMSEGITLVEDINRRREPLPLLEAVYLITPTEESVKCLMADFQNPDNPQYRGAHIFFTEACPEELFKELCKSTTARFIKTLKEINIAFLPYESQIFSLDSPDTFQVYYNPSRAQGGIPNKERCAEQIATLCATLGEYPSVRYRSDFDENASFAQLVQQKLDAYRADDPTMGEGPQKDRSQLLILDRGFDPISPLLHELTFQAMAYDLLPIENDVYKYVNTGGNEVPEKEVLLDEKDDLWVEMRHQHIAVVSQNVTKKLKQFADEKRMGTAADKAGIKDLSQMLKKMPQYQKELSKYSTHLHLAEDCMKQYQQHVDKLCKVEQDLAMGTDADGEKIRDHMRNIVPILLDQKISAYDKIRIILLYIIHKGGISEENLAKLVQHAHIPAEEKWIINDMQNLGVPIIQDGGRRKIPQPYHTHNRKERQADHTYQMSRWTPYMKDIMEAAVEDKLDTRHYPFLNGGGPRPSCQQPVSVRYGHWHKDKGQASYKSGPRLIIFVVGGISYSEMRSAYEVTQTAKNNWEVILGSTHILTPEGLLRDLRKISNP | soluble |
| MALTFTQAVSKLTSKFPHLNLVEFNGVRYPTVIVCPIHGRVTCSTFKSMLDSKSGCPKCASYGVNSHKIPEDTIDKLSKNTVLEDTVTGETLTFPSRASAARSLGINPAAITDRIKGRVHTETLLAGRYKVHICTK | not soluble |
| MAMLGDQSFAAVKRDVPVDPDRQANDYVRCVADAVTREVGGSWEVVLFRQDSPNAFALPGGKIGVHTGMLRIARNQDQLATVLAHEVAHVLSRHANERLSQQVAVQQGLNAMQALADPSSSSGKTLMGLLGLGAQYGILMPYSRTQESEADLLGLDLMARAGFDPRQSIELWNNMANSGGGQPIEFLSTHPSHATRMQDLAKRMPRALDLQRQAAAQGHRPQCDGIRAGGGLEHHHHHH | not soluble |
